Data as given in a protein production outcome set (Wang et al. 2014).

Assay: label from the status in PepcDB records

| Sequence | protein production |
| --- | --- |
| MEVIVVDDEELSLNRLGNMLAGMPGVEVCGLFYTAAEALRYINENKPDAVFLDICIPETDGLALANKIKDIDGSAKVVFVTGYDEYAVRAFELEAVDYLMKPISRDRLEKTVQRLQRTLLGTDRQSNPQMKVSCFGGFRATVCESDSGSVNWRSPKTEELFAFLIFKRNVSRDEIANTLWDGLEPGRALTNINSTMYYIRKALSPHGLEKCIAATRKEIRIDSELISCDLYEFERLLRGRPSSKDRVETLDRLAELYKGELFQGKAYEWSFAKSRSLESGFISALLETAEYYREKRGYEQAEKMYKRAFEIDPFNEDICGHIIQICLKMGRKSEALRLYLQMEKFLMEELGEKPQAKLKKLFEEQ | failed |
| MEVKFLDYTLRVGGEAGQGLQTIGGALAKIFSRKGYHVFTHQDYMSRIRGGHNFYQLRFSDREVMASKELVDILLALDLNTIEIHKNSVREDGFILYDSESMKKKFEGPQFIDIPFRKIALDVGKKSVMANTVATGAVLGLLDLGLDLLNDILRVTFEDKGKEIIEQNIACAEAGYNYAHSNCSRCEAFGIPEPEARKLLLIDGVQAIGMGALMSGCTFYSAYPMSPSTGILNYLASRAEEYGLVIEQAEDEIAAINMTIGASFAGARAMTGTSGGGFSLMAEGISLAGITETPLVLAEMQRPGPATGLPTRTEQGDLLFVLNAGHGEFPRVIFEPGTPEQAFYLTSKAFELAEKYQIPVFILSDQYLGESEWTFESFDLKRPVYNDYRVREKDLEGAEDYKRYGYTDTGISPLAVPGEAGKHLVVADSDEHDEEGHIIEDAETRIKMVQKRLLKKLPLIKEEIEAPLLYGDSSPEIVLVGHGSTYGVIKEIVDIFSKDKKIAMMHFSQIYPFPERDRFDYIEFLKNANLVISVENNATGQFAKLMRAETGFEFARQILKYDGRPFTIEKLKEEIDACL | failed |
| MEVNGEEERRSRREDEEKEDYYYSLLNSPCSVCNKFVQAILKCLGLESSSIPPSSSSSSPSLVEEEDSGTETVEETGFMARITAVLRRRPRPPPYSSGRPGQNN | not failed |
| MEVNNETMQKSKFGRICVFCGSSQGKKSSYQDAAVDLGNELVLRNIDLVYGGGSIGLMGLVSQAVHDGGRHVIGVIPKTLMPRELTGETVGEVRAVADMHQRKAEMARHSDAFIALPGGYGTLEELLEVITWAQLGIHDKPVGLLNVDGYYNSLLSFIDKAVEEGFISTNARQIIISAPTAKELVKKLEEYSPCHESVATKLCWEIERIDYSSED | failed |
| MEVTLLGTGDTTGTPTVQCDCDTCERARDPDEELRANVRERGIDPTGGVERSRFSVAVENDTTGESLLVDLSPDFRHQFLRESVPLPDAAIITHIHFDHLDGLGNAYRLFDELPVHAADETDPVTDESVAEAVRSRYDYLDTVSVHAQTPLEPFTVAGFEVTLVPVTHPPLLCYGLRIEEPQTGAVLSISGDTCYDVPDRSKSVLTGADLALVEGIVHPEACEYHPKGGTHHNEDGVPRTFGTKHMTLPGARDFAADIEADDYRIVHTAHYVPADRAFADDIGLDGEQFML | failed |
| MEYDYLVIAGYFALMVAISLLFKKMASNSTSDYFRGGGKMLWWMVGATAFMTQFSAWTFTGAAGKAFNDGFAVLAVFVGNMVAYVFAYFYFARRFRQMRVDTPTEGVKRRFGNTNEQFFTWVIIPLSVINAGVWLNGLGVFASAVFNADIVTTIWVTGLAVLAISLLSGAWGVVASDFIQTLVVAVISIACAAVALYVVGGPGEIVENFPGGFIMGPDMNYPLLLVCTFIFFVVKQLQSINNMQESYRFLNAKDSKNASKAALMALVMMLFGAVIWFIPPWASAILYPDAATQYSSLGAKASDAVYLVFARETMPLGTVGLLMAGLFAATMSSMDSALNRNSGIFVRSFYSNIVRKGQASDKELLRAGQIACLVNGILVIMMAQFFNSLKHLSLFDLMMQVATLLQSPILVPLFLGIIIRRTPKWAPWATVVVGMFVSWSVVKIFTPEFVGSWFGMDELTRREAGEMRTMITIAAHLVFTAGFFCLSTLFYKEETDTHKETTAEFFKDVDTECVAEEGQDIVDRMQRAKLGTLVIYMAAGLTLMVLIPNPLWGRLLFLACAASVFAVGYGLKKSAKLDTQLSKVAATTTQ | failed |
| MEYGAICTPFIFVVYAKSKYLCVLISNEMGKNKLEKFADMASYPHVFEYPYSAVDNVPFDMKGKWHQEFFGNDHPIVLELGCGRGEYTVGLGRMFPDKNFIAVDIKGSRMWTGATESLQAGMKNVAFLRTNIEIIERFFAAGEVSEIWLTFSDPQMKKATKRLTSTYFMERYRKFLKPDGIIHLKTDSNFMFTYTKYMIEANQLPVEFITEDLYHSDLVDDILSIKTYYEQQWLDRGLNIKYIKFRLPQEGVLQEPDVEIELDPYRSYNRSKRSGLQTSK | failed |
| MEYHLRTKLNGNIAMTSCFHENSFLQCDRSLYKFIWVRHGALDVEVDHVVMHLEKEEMISLTPLHHVQIRGVDGEYLTFLFNSNFYCIYGHDSEVSCNGFLFNGSSRVMRLKLSPSQSARLDSIVDIFRGECGIQDNLQEEMLRIILKRFIITCTRIAREKFDVDPGRENMFDVIRQFYVLVDSHFKEKKQVQDYADMLCRSPKTISNLFSLYGLSSPLRVIHERVDAEAKRLLLYTGKSAKEISEILGFEDLATFSRFFKKMNKESLSEYRKREKRE | not failed |
| MEYRITGKGVEISEAIKNYLEKRLDKIDRVIYDDDLVSFNVRIEKDGKNQYVVKFNMNLKGNIINVEERHPDIYTAIDFASDALEKQVKRLKERLKNHPHRSSALVETPLEEPGEFSPSDKVSSVKRVSLLNLDLDEAVMQMDELNHRFLVFRNVNTGEINLLYRDENGDIHLIEMAE | failed |
| MEYYDIIIVGAGPAGSTLARALEDSGKRVLIIDKQAFPRDKTCAGWVTPAVMASLDIDPGKYSVGRTLQPIRRFRIGMMGQSAVENDHGDIVSYGIRRCEFDDYLLDRAECEKQLATAVKSINRNNGNWVINDQWQAPLLVGAGGHFCPVARLLGDGPGKHETVVAAKEVEFEMTPEQARACEARGDTPELWFCRDLKGYAWVFRKGSYLNIGLGREDNHRLSDHLEAFVEEMKQSGRIPSDLPGRFKGHAYLLYAHANRPLVDDGVLLIGDAAGLAYTQSGEGIRPAIESALMAANVIKAAPDYSALSLQSYGERIAERFGTRATDQQPGFEVPEWLKQPIASTLMRSHWFTRKVVTEKWFLHQEVPPLEVAV | failed |
| MEYYFTAQKLAVGYDNRPLIENIDFSLKRGEILTLIGPNGAGKSTILKSIARQLSLVSGTIYLDKSDVVTMNGNEFAKKMAVVLTDKLKTELMTCYDVVATGRYPYTGRFGVLSDEDKKAVDEAMELVNVSQIKDKDFTKISDGQRQRVMLSRAICQQPEIIVLDEPTSYLDIKYKLEFLSILQRLKRQKNLTVIMSLHELDMAKRVSDHILCIDGRYVDRYGTPEEVFTDQYVSGLFGITAGSLEHHHHHH | not failed |
| MEYYQPVEINVLSAQDLNSINLLFRPTVYVSVSVTRGSRDKQVTPAAAWDKKFLRWNYRMKFYIEDDKVRRNESVFVFQIKCKRFFGSDQVVGKLFIPGCRLGVWGNIRHEPSAPCEDDIYA | failed |
| MFADNTLTPKEAVRLCALGTIASQPMRYSELAGSVRHFTSRIMGPSLELMGISIELLRYEGLVEAVDDGQGMEDDAMLAISAAGRRELHSLLTARLRPGSDLSKLVVALKMRFLGLMEAEERAHQIDLLIEGVDSELARLADLRGSDGEGGSALAAWLDHDMALLESRLAWLEDFRARL | not failed |
| MFAEYLDGRMLMQINAGAFLIALLCLRGDRQRTLDRWLFGAAAGVLLLVYYVWRFTDTLPEWRMDFPSLWAHAFFGFESLTIAYTLISIGIMTRTSDHSAEADAGETALRRGREAPPVDIFIATYNEGLDVLEKTIVAALDIDYPNFRVWVLDDTRRDWLREFCDQVGARYVTRPDNAHAKAGNLNNGLRHSAELDGGAPFIMVLDADFAPNRNILLRIVGLFDDPQVGVVQTPQFYYNADPIQYNLRSTECWVDEQRAFFDVMQPSKDAWGTAFCIGTSFVVRREALDRIGGFPIGTVTEDIHLTYKLMPHGYITRWLNERLSVGLSAEGLPEYISQRSRWGLGTIQVALTADGPLRGPGYTLRERLHYVHGLLHWLSRPFTLMLLAGPLLYWYFNVPTLYGEPLQFLAFGVPALLLYWAYSIWITGARAMPIFTEVTQIVAAMAVSATLVSAIFKPFGRPFKVTNKGLDRSKLVVHGKFAAFYGALFVLAAMGLGRAVAADGTASGVVFNIGWTVISMVLYLASLLVCFELPRPRKEERFPHRERARLCIYGSDGLPREFDGVTQDMSCNGIGLISDAAGRVEAGATGAVWLSELGWVTCRVARTQGHLLGIELFPDMAGRHRLIRMLFGEPAHNIAHRGRPRVAIVQLLRRAFTG | failed |
| MFAMPTFELDALTTLALALILLGVGAQLKKRSRWLTQLCVPAPVIGGFGFALIVWLLRDQQLLAIKLDTAIQTPLMVAFFTTVGLGGSLGLLRRGGKILFVYLGACWSLALLQNLVGVGAAKALGIDPLLGIMAGAVSLEGGFGAAAAFGPIAENLGAVGATTAALASATFGMVAGGLLGSPLARWLIERNRLQIQADQVSTLQHLESAAQGSVAPLDAPTLLRLLTCILLIMVLGFWIGSALNEHLGIVLPSYVGAMFVAIILRNLNDRARIIDIPDSAVSTLGDVCLGVFLTMAMMSLKFWELEQLGLPLLVILVVQVLVMVLLCVFLLFRLFGGNYDAAVLCAGFMGHGLGATPNAVANMGAICDHYKVFSYKAFIIVPLCGAVLIDIVAIPLITWFINAFA | failed |
| MFDSVLQQSMQQWLETSLGQYVLEQEQRYFDRVVTDIFGYNATQIGFSGFDFLRNNRMPFKFAFGVRDGASVYAHPHFLPIKSSSIDLVLLPHTLEFNSNPHQILREAHRVLIPEGKVIISGFNPFSLWGMRQRMAKSKTDFPWCGRFIALPRMQDWLELHNFEIVAGQFGCYVPPCTREKWLSRLRFMEAAGDRWWPIAGGVYFLQAVKHECGLHIITPRWEDSPAKRGTVVVPQIERGHRMNNLEVSTVPWREKAGGGLIENRKYGVQYSVNNRDV | failed |
| MFENESLSFEEQTIIQAAERYVQQELANEASGHDWWHIYRVTQLAKTIAEKEQANLFLCILTALLHDIGDEKFNESEEAGLLKVQQWLEANNVSTEQTNHILSIIANMSFKGGNTGKTVTTLEGKVVQDADRLDAIGAIGIARVMAYSGNKGRLIHDPHKQPREQLTQEEYRNGEDTAIMHFYEKLLKLKEQMNTNYGRLLAEKRHQFMELYLEEFYQEWDGHRLEHHHHHH | not failed |
| MFERLPVPLSRHERAGPPMPEIGPYTLHTVDTGRFGLDGGAMFGIVPKPLWSQRIEPDEQNRIPLSMRCLLLIGDGRVVLIDTGIGDTFEDTKFQDIFAVDHSGATLEGSLAAHGVAPVDVTDVVLTHLHFDHAGGSTRRIDGEPAVAFPNATYHVQRRHWNWAADPNPKEEQSFRSDTFAPIEEAGQLNLVEGETTLLPHVDVSLVHGHTEAQQTVTVRDDETTLVYVADLLPTTHHLSPAWTMAYDVRPLRTIEEKGEFLEQAADSEWKLFFEHDPEVAVADVERTDRGVQVVNERSLDAL | failed |
| MFFEIALIGTTASGKTYIANTLAREFNAVVLSLDSLCVYKEINIASAKPSQDDLASIKYFGVNLLSVNEHFNVELFIREYQKAKEFALARNLPLIIVGGTGFYLKTMIDGLSEKTLESKSSLNNDEIYALLLNIDPNYKIEKNDTYRLKKWLGIYEQTREIPSEFLKRTQKTGVLKDIEIYELAWDKEILKKRIKTRTKEMLDNGLLDEAKILFSKFDHKLKALNSIGLKECKEYLDGEISFKELENLITIHTTQLAKRQRTFNKKFQSKALEFDKALATLRMKFSIEKLEHHHHHH | failed |
| MFFKEIHHVAINASNYQATKNFYVEKLGFEVLRENHRPEKNDIKLDLKLGSQELEIFISDQFPARPSYPEALGLRHLAFKVEHIEEVIAFLNEQGIETEPLRVDDFTGKKMTFFFDPDGLPLELHE | not failed |
